In article PMC10641069, “Intra- and inter-molecular regulation by intrinsically-disordered regions governs PUF protein RNA binding” (Nature Communications, 2023):
“And” between values parts separate entries of the source, which are not always exact repeats. Equal values may be shown once. Read-outs that look alike come from different tables or passages of the source.

How the values were obtained:
[1] = Melting temperature of FBF-2 proteins; assay type: physicochemical
Description: Mutants of FBF-2 RBD + CT: Y479A (5′-[…]), L610A (5′-[…]), and Loop6A (E592A, D594A, E597A, E599A, E604A, E605A; 5′-[…]) were generated by site-directed mutagenesis with the primers indicated. Plasmid sequences were verified by DNA sequencing (Azenta Life Sciences). Protein variants were expressed and purified like wild type proteins. Melting temperatures of wild type and mutant proteins were assessed by differential scanning […]. Reaction mixtures (total volume of 20 μl) contained ~0.3 mg/ml FBF-2 proteins and Sypro Orange dye (1:1000 dilution) (Sigma). Fluorescent intensity was collected from 25 °C to 95 °C (3 °C increment/min) with a real time PCR instrument (Applied Biosystems™ QuantStudio 7 Flex System) using excitation and emission wavelengths of 470 nm and 586 nm, respectively. Protein Thermal Shift^TM software (Applied Biosystems, version 1.4) was used to analyze protein melting curves and calculate melting temperatures (Tm).

gld-1 FBEa RNA [2] = experiment: Electrophoretic mobility shift assay (EMSA), RNA binding; design: species or system C. elegans
Description: A 3′-Cy5-labeled synthetic RNA was ordered from IDT (gld-1 FBEa, 5′-[…]-3′). The FBF-2 proteins were serially diluted 2-fold from the highest concentration of 10 µM in the buffer used for gel filtration (20 mM HEPES pH 7.4, 150 mM NaCl, and 0.5 mM TCEP). 10 µl of the serially diluted protein samples were mixed with 10 µl RNA (10 nM) in a 2× buffer of 10 mM HEPES pH 7.4, 0.01% (v/v) Tween 20, 0.1 mg/ml BSA, 0.1 mg/ml yeast tRNA, and 2 mM DTT. For experiments in the presence of LST-1, LST-1 proteins at constant concentration were preincubated with FBF-2 at 4 °C for 2 h. The LST-1 concentrations were chosen based on their Kd’s for interaction with FBF-2. The final FBF-2 concentrations ranged from 5000 nM to 0.6 nM, and the LST-1 A or B concentrations were constant at 150 μM or 50 μM, respectively. The protein-RNA mixtures were incubated at 4 °C overnight. The samples were resolved on 10% TBE polyacrylamide gels run at constant voltage (100 V) with 1× TBE buffer at room temperature for 35 min. The gels were scanned and visualized with a Typhoon FLA 9500 imager using the Cy5 channel (excitation wavelength 635 nm). Band intensities were quantified with ImageQuant 5.2 (Cytiva). The data were fit with GraphPad Prism (version 9.2.0) using nonlinear regression with a one-site specific binding model. Mean Kd’s and standard error of the mean (SEM) from three or more technical replicates are reported (Supplementary Table 4). Full scan images for the replicates shown in the main figures and gel images for all replicates are included in a source data file.

LST-1 = details: Y479A mutation; cited from earlier work
gld-1 FBEa RNA [3] = experiment: Surface plasmon resonance, RNA-binding kinetics; design: species or system C. elegans
Description: Kinetics of FBF-2 binding to the gld-1 FBEa RNA were measured using a 2-channel OpenSPR instrument (Nicoya). A 3′-biotin-labeled synthetic RNA was ordered from Horizon Discovery (gld-1 FBEa, 5′-AUCAUGUGCCAUACA-biotin-3′). The 3′-biotinylated RNA was immobilized on streptavidin-treated biotin sensor chips (Nicoya). All experiments were performed at 20 °C with a buffer of 20 mM HEPES, pH 7.4, 150 mM NaCl, and 2 mM DTT. SPR data were collected using OpenSPR (Nicoya, version 4.3). FBF-2 proteins were injected with a flow rate of 20 µl/min. Data were obtained at five different protein concentrations (25, 50, 100, 200, and 400 nM for wild type RBD + CT; 12.5, 25, 50, 100, and 200 nM for RBD + CT mutants and wild type RBD). Sensor chips were regenerated using 0.05% or 0.1% (v/v) SDS. For each experiment, five binding curves were simultaneously fit using a 1:1 binding model with the TraceDrawer software (Ridgeview Instruments, version 1.9.1). Mean values and standard deviation were calculated from two technical replicates. Despite our efforts, the fit of the binding curves for the association phase of FBF-2 RBD and FBF-2 RBD + CT mutants is poorer than the fit for FBF-2 RBD + CT WT. The appearance of the curves is consistent with the derived kon and koff values, and importantly, the curve fit for the dissociation phase is better.

[4] = mean ± SD, two technical replicates, 20 °C, pH 7.4, 1:1 model

B1: FBF-2 RBD + CT Y479A: FBF-2 RBD + CT mutated in the R7-R8 loop (Y479A) (protein, UniProt Q09312 164-632, looked up, variant Y479A)
chain: SNNVLPTWSLDSNGEMRSRLSLSEVLDSGDLMKFAVDKTGCQFLEKAVKGSLTSYQKFQLFEQVIGRKDDFLKLSTNIFGNYLVQSVIGISLATNDDGYTKRQEKLKNFISSQMTDMCLDKFACRVIQSSLQNMDLSLACKLVQALPRDARLIAICVDQNANHVIQKVVAVIPLKNWEFIVDFVATPEHLRQICSDKYGCRVVQTIIEKLTADSMNVDLTSAAQNLRERALQRLMTSVTNRCQELATNEYANYIIQHIVSNDDLAVYRECIIEKCLMRNLLSLSQEKFASHVVEKAFLHAPLELLAEMMDEIFDGAIPHPDTGKDALDIMMFHQFGNYVVQCMLTICCDAVSGRRQTKEGGYDHAISFQDWLKKLHSRVTKERHRLSRFSSGKKMIETLANLRSTHPIYELQSSGHDSFKTDYFSTASEHDGPELEKNGIEEGSLMLEPRSNKSSVSVKFSSSGSHGDD
thermal stability ([1]; in words, vs RBD alone or vs RBD + CT): decreased the thermal stability | Tm ([1]; mean ± SD, three technical replicates, ~0.3 mg/ml protein, Sypro Orange, 25 to 95 °C, fluorescence): 35.25 ± 0.05 °C | Tm ([1]; replicate 1): 35.30 °C | Tm ([1]; replicate 2): 35.30 °C | Tm ([1]; replicate 3): 35.16 °C | Kd (gld-1 FBEa RNA [2]): 36 nM and 39 nM and 47 nM | Kd (gld-1 FBEa RNA [2]; no LST-1, mean ± SEM of independent technical replicates (n = 3-5), 4 °C overnight, pH 7.4, Cy5-RNA 5′-AUCAUGUGCCAUAC-3′): 62 nM | Kd (gld-1 FBEa RNA [2]; no LST-1, replicate 1): 75 nM | Kd (gld-1 FBEa RNA [2]; no LST-1, replicate 2): 64 nM | Kd (gld-1 FBEa RNA [2]; no LST-1, replicate 3): 48 nM | Kd (gld-1 FBEa RNA [2]; pH 7.4): 41 ± 6 nM | interaction with LST-1 (LST-1): disrupts interaction between FBF-2 and LST-1 | Kd (gld-1 FBEa RNA [3]; derived from on/off rates, mean ± SD, two technical replicates): 12.9 ± 6.4 nM | koff (gld-1 FBEa RNA [3]; [4]): 1.18 ± 0.11 x10^-3 s^-1 | kon (gld-1 FBEa RNA [3]; [4]): 10.2 ± 4.3 x10^4 M^-1 s^-1 | Kd (gld-1 FBEa RNA [3]; replicate 1): 17.4 nM | kon (gld-1 FBEa RNA [3]; replicate 1): 71900 M⁻¹ s⁻¹ | koff (gld-1 FBEa RNA [3]; replicate 1, read-out: koff): 0.00125 s⁻¹ | Kd (gld-1 FBEa RNA [3]; replicate 2): 8.3 nM | kon (gld-1 FBEa RNA [3]; replicate 2): 133000 M⁻¹ s⁻¹ | koff (gld-1 FBEa RNA [3]; replicate 2, read-out: koff): 0.0011 s⁻¹
